{"source": "patent US20130197191A1", "about": "(published 2013)", "target": "recombinant human β-Klotho (UniProt Q86Z14 53-996, biotinylated in the AlphaScreen assays (site not stated))", "sequence (Q86Z14 53-996)": "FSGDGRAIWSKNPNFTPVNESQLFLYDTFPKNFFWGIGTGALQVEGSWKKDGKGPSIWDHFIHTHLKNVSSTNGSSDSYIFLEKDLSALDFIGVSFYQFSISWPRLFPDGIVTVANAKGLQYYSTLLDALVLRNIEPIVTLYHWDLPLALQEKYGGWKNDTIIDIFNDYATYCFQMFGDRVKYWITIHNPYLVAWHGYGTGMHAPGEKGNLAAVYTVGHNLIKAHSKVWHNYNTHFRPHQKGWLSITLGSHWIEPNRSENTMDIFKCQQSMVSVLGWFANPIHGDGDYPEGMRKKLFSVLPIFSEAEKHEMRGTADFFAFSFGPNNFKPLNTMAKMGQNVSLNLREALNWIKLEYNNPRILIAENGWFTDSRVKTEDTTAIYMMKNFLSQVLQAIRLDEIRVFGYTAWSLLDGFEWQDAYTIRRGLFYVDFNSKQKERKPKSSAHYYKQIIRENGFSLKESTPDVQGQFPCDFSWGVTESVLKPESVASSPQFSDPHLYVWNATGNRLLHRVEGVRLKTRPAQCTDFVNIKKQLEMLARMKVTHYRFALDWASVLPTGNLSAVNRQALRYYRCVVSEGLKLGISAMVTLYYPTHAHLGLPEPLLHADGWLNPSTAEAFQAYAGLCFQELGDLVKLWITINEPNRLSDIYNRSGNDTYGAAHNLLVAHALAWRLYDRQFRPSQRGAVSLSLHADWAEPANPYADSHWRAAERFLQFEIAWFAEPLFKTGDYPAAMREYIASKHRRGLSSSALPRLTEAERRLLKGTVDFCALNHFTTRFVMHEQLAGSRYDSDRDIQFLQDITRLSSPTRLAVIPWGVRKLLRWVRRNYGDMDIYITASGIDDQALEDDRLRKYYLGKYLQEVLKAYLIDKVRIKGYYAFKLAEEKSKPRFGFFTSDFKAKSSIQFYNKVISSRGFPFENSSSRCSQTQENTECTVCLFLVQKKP", "assay": "binding EC50"}
{"binder": "β-Klotho walked dimer BK_R1c_D24 (designed binder) CRPDEFPCRSTGRCVPRRWVCDGVDDCGDNSDESLAHCQTPTCQPDEFTCSSGRCIPQPWLCDGLNDCGDGSDEPPAHCSAPASEPPGSL", "values": [{"measurement": "EC50", "value": 8.52, "unit": "nM"}]}
{"binder": "β-Klotho walked dimer BK_R1c_D22 (designed binder) CQPDEFTCSSGRCIPQPWLCDGLNDCGDGSDEPPAHCSAPASEPPGSLCRPDEFRCKNGRCIPQTWVCDGEDDCQDSSDETDCESTVRT", "values": [{"measurement": "EC50", "value": 99, "unit": "nM"}]}
{"binder": "β-Klotho walked dimer BK_R1c_D05 (designed binder) CAAGQFRCHNSDTCLPGAWVCDGDNDCGDNSDEASCQKRTCHSFNQFECRNGQCIPLHLVCDGVPDCGDNSDETDCGDSHILPFSTPGPST", "values": [{"measurement": "EC50", "value": 0.01, "unit": "nM"}]}
{"binder": "β-Klotho walked dimer BK_R1c_D18 (designed binder) CPPDEFQCRGTKKCLPLAWVCDGDNDCEDDSDEESCASAVHTCQSNEFRCRSGRCIPQHWLCDGLNDCGDGSDESQQCSAPASEPPGSL", "values": [{"measurement": "EC50", "value": 21.5, "unit": "nM"}]}
